For the experiment, the target named is N-heptad repeat of HIV-1's gp41 (HIV-1 strain IIIB) (HIV-1 strain IIIB), P04578. Nature of the experiment: cell-based or functional assay.

Changes are numbered by the printed parent chain. Several values for one entry are separate records, joined by “and”; a condition that tells them apart may be missing. Equal entries are not always repeated.

Chain of N-heptad repeat of HIV-1's gp41 (HIV-1 strain IIIB) (HIV-1 strain IIIB), P04578 (P04578 540-590 limits assumed): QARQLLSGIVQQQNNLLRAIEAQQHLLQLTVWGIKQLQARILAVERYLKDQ

B1: CJC-1646 (SEQ ID NO:93), native (unreactive) C34 (peptide)
peptide: WMEWDREINNYTSLIHSLIEESQNQQERNEQELL
modifications: not checked
On to B1, for which the RT Results (cpm) (Day 7), HIV-1 IIIB in CBMC, drug at 0 nM (no-drug baseline) is 49000 cpm and 46300 cpm and 47400 cpm; the RT Results (cpm) (Day 7), HIV-1 IIIB in CBMC, drug at 125 nM was 5850 cpm and 5040 cpm and 5220 cpm; the RT Results (cpm) (Day 7), HIV-1 IIIB in CBMC, drug at 600 nM is 4920 cpm and 5850 cpm and 5090 cpm; the RT Results (cpm) (Day 7), HIV-1 IIIB in CBMC, drug at 3000 nM is 5810 cpm and 6960 cpm and 5970 cpm.

B2: CJC-1655 (SEQ ID NO:32), C34 with linker-R1-R2-M inserted at position Asp5 (peptide)
peptide: B1 peptide with D5K
modifications: not checked
B2: the RT Results (cpm) (Day 7), HIV-1 IIIB in CBMC, drug at 0 nM (no-drug baseline) is 71900 cpm and 54100 cpm and 51000 cpm; the RT Results (cpm) (Day 7), HIV-1 IIIB in CBMC, drug at 125 nM was 6320 cpm and 6930 cpm and 5910 cpm; the RT Results (cpm) (Day 7), HIV-1 IIIB in CBMC, drug at 600 nM is 6480 cpm and 11900 cpm and 6030 cpm; the RT Results (cpm) (Day 7), HIV-1 IIIB in CBMC, drug at 3000 nM is 7970 cpm and 5900 cpm and 6210 cpm.

These data come from patent US20080039532A1, “Compounds For Specific Viral Target” (priority 2004, published 2008).
